Experimental findings from ChEMBL document CHEMBL1148343, “Fragment-based drug discovery” (J Med Chem, 2004) are described below.

Substrate in the data set: Nc1nc(=O)c2c([nH]1)NCC1CN(c3ccc(C(=O)N[C@@H](CCC(=O)O)C(=O)O)cc3)CN21
Kind of data set: Michaelis-Menten constant (Km) against thymidylate synthase.

B1: Thymidylate synthase (Lactobacillus casei), P00469 (protein)
chain: MLEQPYLDLAKKVLDEGHFKPDRTHTGTYSIFGHQMRFDLSKGFPLLTTKKVPFGLIKSELLWFLHGDTNIRFLLQHRNHIWDEWAFEKWVKSDEYHGPDMTDFGHRSQKDPEFAAVYHEEMAKFDDRVLHDDAFAAKYGDLGLVYGSQWRAWHTSKGDTIDQLGDVIEQIKTHPYSRRLIVSAWNPEDVPTMALPPCHTLYQFYVNDGKLSLQLYQRSADIFLGVPFNIASYALLTHLVAHECGLEVGEFIHTFGDAHLYVNHLDQIKEQLSRTPRPAPTLQLNPDKHDIFDFDMKDIKLLNYDPYPAIKAPVAV
With B1, the Michaelis constant (Km) was found to be 14 µM.
